We go through one substance from publication PMC3478719.

For this assay, the target named is SIF binding receptor from human spermatozoa (human (endogenous in spermatozoa)). Description: ITC; microreaction calorimeter, titration mode; 1.5 mL receptor (200 μg mL^-1) in the vial, ligand (500 μg mL^-1) in a 250 μL syringe; PBS.

Turning to “Sperm immobilization factor (SIF) from Staphylococcus aureus (natural protein)”, the Ka was 1350 M⁻¹; the dH was -11.9 kJ/mol; the heat released (ligand 7.5 × 10^-4 μM, receptor 4.8 × 10^-3 μM) was found to be 9.7 mJ; the heat released (ligand 15.0 × 10^-4 μM, receptor 4.8 × 10^-3 μM) was determined as 9 mJ. The heat released (ligand 22.5 × 10^-4 μM, receptor 4.8 × 10^-3 μM) was found to be 8.6 mJ; the heat released (ligand 30.0 × 10^-4 μM, receptor 4.8 × 10^-3 μM) was found to be 5.6 mJ; the heat released (ligand 37.5 × 10^-4 μM, receptor 4.8 × 10^-3 μM) turned out to be 2.3 mJ; the heat released (ligand 45.0 × 10^-4 μM, receptor 4.8 × 10^-3 μM) is 2.1 mJ. The heat released (ligand 52.5 × 10^-4 μM, receptor 4.8 × 10^-3 μM) is 2 mJ.
